Measurements as given in publication PMC11721787 (Science translational medicine, 2023).
Changes are numbered by the printed parent chain.

B1: ADI-42898 (monoclonal antibody, IgG) (antibody, V domains shown)
VH: QVQLVESGGGVVQPGRSLRLSCAASGFTFSSYAMHWVRQAPGKGLEWVAVTWFDVSKKDYADSVKGRFTISRDNSKNTLYLQMNSLRAEDTAVYYCARNLIRYSGSYFPVHGMDVWGQGTTVTVSS
VL: DIVMTQSPLSLPVTPGEPASISCRSSQSLLHTYGYNCLDWYLQRPGQSPQLLISLGSYRASGVPDRFSGSGSGTDFTLKISRVEAEDVGVYYCMQALHPFTFGGGTKVEIK
B2: ADI-65534 (antibody, V domains shown)
VH: B1 VH with T28E, G105V
VL: B1 VL with C37V
B3: ADI-65533 (antibody, V domains shown)
VH: B1 VH with G105V
VL: B1 VL with C37V

Biological target: ANDV Gn^H/Gc (Andes virus; strain , Q9E006 …, UniProt Q9E006)
Assay: BLI

Row | Binder | half-life (t1/2) of the complex at pH 5.5 [s] | fold reduction of dissociation at acidic pH against ADI-42898 [fold]
1 | B1 | 519 | 
2 | B2 |  | 10
3 | B3 |  | 10
